This is an account of results in PMC5979959.

In the assay the target is human DNAJB6, cytosolic isoform B (human) (UniProt O75190). In words: native gel or EMSA + other: negative stain electron microscopy; DNAJB6 oligomers fractionated by GraFix (5-30% sucrose, 0-0.2% glutaraldehyde gradient, 20 mM NaPO4, 150 mM NaCl, pH 8.0, 4 °C); fraction 5 analysed by blue native-PAGE and negative stain EM with single particle reconstruction. In general terms: In EMSA bound probe runs differently from free probe, usually more slowly.

By stoichiometry N is commonly meant a count of units in the complex or per binding partner.

human DNAJB6, cytosolic isoform B, O75190-2 1-241 (natural protein; other documents disagree on this pair), sequence (O75190 other isoform, or with tags, fused parts or gaps): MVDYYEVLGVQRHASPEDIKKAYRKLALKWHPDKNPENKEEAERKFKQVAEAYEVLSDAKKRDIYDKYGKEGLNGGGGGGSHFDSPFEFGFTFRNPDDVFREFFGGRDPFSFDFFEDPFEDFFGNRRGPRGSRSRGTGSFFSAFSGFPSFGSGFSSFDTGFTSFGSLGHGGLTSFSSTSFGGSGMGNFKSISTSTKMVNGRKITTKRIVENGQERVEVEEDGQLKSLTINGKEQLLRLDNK

Turning to “human DNAJB6, cytosolic isoform B, O75190-2 1-241 (natural protein; other documents disagree on this pair)”, the stoichiometry N amounted to 20 subunits.
